Data: patent US20200277374A1 (Alector, published 2020)

Columns and labels:
[1] = target: human Siglec-7 expressed on human cells (primary monocytes, dendritic cells, macrophages, NK cells, microglia, U937 cells, human cells of humanized mice) (human) (UniProt Q9Y286); test: FACS, human primary dendritic cells; isotype control (background)
[2] = target: human Siglec-7 expressed on human cells (primary monocytes, dendritic cells, macrophages, NK cells, microglia, U937 cells, human cells of humanized mice) (human) (UniProt Q9Y286); test: FACS, human primary monocytes; isotype control (background)
[3] = target: human Siglec-7 expressed on human cells (primary monocytes, dendritic cells, macrophages, NK cells, microglia, U937 cells, human cells of humanized mice) (human) (UniProt Q9Y286); test: FACS, human primary macrophages; isotype control (background)
[4] = target: human Siglec-7 expressed on human cells (primary monocytes, dendritic cells, macrophages, NK cells, microglia, U937 cells, human cells of humanized mice) (human) (UniProt Q9Y286); test: cell-based or functional assay
[5] = target: T1, Histidine-tagged human Siglec-7 (NovoProtein) (human, UniProt Q9Y286 19-357, limits assumed); test: SPR (BiaCore T200, 25 C), antibody captured on anti-mouse IgG, Siglec-7-His 100 nM, single-concentration kinetics
T1 construct: Bought protein; also called purified Siglec-7-his tagged protein; not shown: histidine tag
T1 sequence (Q9Y286 19-357 limits assumed): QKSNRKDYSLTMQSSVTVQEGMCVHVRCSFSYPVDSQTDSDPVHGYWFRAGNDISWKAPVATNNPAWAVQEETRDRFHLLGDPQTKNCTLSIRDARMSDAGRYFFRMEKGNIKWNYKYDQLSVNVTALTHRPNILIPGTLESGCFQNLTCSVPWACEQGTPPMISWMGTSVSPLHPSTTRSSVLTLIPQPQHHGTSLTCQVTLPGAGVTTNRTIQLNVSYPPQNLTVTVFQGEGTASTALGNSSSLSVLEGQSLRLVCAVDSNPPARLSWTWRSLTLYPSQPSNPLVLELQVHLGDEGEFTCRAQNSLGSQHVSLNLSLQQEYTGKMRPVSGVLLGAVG
Description: SPR data was collected at a rate of 10 Hz at 25′ C on a BiaCore T200 instrument. Data analysis was performed using BiaCore T200 Evaluation Software, version 2.0. HBS-EP+ (100 mM HEPES, 1.5 M NaCl, 30 mM EDTA, 0.5% v/v Surfactant P20, pH 7.4) was used as running buffer and for preparing reagents.
Mouse-derived antibodies (25 nM) against Siglec-7 were captured (60 s contact time, 30 μL/min flow rate, 0 s stabilization time) on a CM5 sensor chip (GE Healthcare) immobilized with anti-mouse IgG. Histidine-tagged human Siglec-7 (NovoProtein) was then flowed over the captured anti-Siglec-7 surface (120 s contact time, 30 μL/min flow rate, 300 s dissociation time). Concentration of antigen ranged from 5 nM to 100 nM, depending on information obtained from an initial screen. Duplicate single-concentration trials were performed and bracketed by a blank (0 nM antigen) sample. The chip surface was regenerated in between cycles using 10 mM glycine-HCl, pH1.7 (60 s contact time, 30 μL/min flow rate, 60 s stabilization time). The resulting SPR signal was obtained as the difference in response from measurements performed on a blank flow cell.
Affinity constants (KD) were calculated from the ratio kd/kₐ. For one antibody (clone 1E8), we validated the single-concentration analysis with a multiple-concentration approach (five concentrations of antigen used, plus one blank).

[6] = target: T2, Siglec-7-Fc (plate immobilized) (human, UniProt Q9Y286 19-357, limits assumed); test: RBC solid adhesion assay, plate-coated Siglec-7-Fc, antibody 0.5 or 1.0 ug/ml; % of RBC binding without antibody
T2 construct: also called Siglec-7-Fc protein; immobilized Siglec-7; not shown: Fc part
T2 sequence (Q9Y286 19-357 limits assumed): as above
Description: To determine which antibodies compete with ligand binding to Siglec-7, a red blood cell (RBC) solid adhesion assay was carried out in accordance with standard protocols (Kelm et al., Current Biology, 1994). Red blood cells are highly decorated with glycoproteins containing sialic acids: therefore, the ability of an antibody to block RBC binding to immobilized Siglec-7 can be used to determine ligand interference. Briefly, 5 μg/ml Siglec-7-Fc was coated overnight at RT in 96 well Immunolon plates, then washed with PBS, blocked for one hour with binding buffer (PBS containing %0.25 BSA 1 mM CaCl₂), Siglec-7 antibodies (0.5 μg/ml or 1.0 μg/ml) were bound for one hour at RT with gentle rocking. After removal of unbound antibody, red blood cells were added to each well at a concentration of 3.0×10⁶ cells per ml and incubated at RT for one hour. Unbound RBCs were then carefully washed off 3× with PBS, and water was added to each well for hypotonic lysis of bound RBCs. The plate was transferred to −80° C. for 10 minutes, followed by 37° C. for 15 minutes. Bound RBCs were detected by peroxidase activity, followed by 2N sulfuric acid to stop the reaction. Signal was detected at […]. Data was calculated as a percent of RBC binding to plate bound Siglec-7-Fc in the absence of antibody.

[7] = target: T3, human Siglec-7 expressed on human cells (primary monocytes, dendritic cells, macrophages, NK cells, … (human, UniProt Q9Y286 19-467)); test: FACS, human primary monocytes, 10 ug/ml mAb
T3 construct: Endogenous receptor on cells; also called Siglec-7 receptor
T3 sequence (Q9Y286 19-467): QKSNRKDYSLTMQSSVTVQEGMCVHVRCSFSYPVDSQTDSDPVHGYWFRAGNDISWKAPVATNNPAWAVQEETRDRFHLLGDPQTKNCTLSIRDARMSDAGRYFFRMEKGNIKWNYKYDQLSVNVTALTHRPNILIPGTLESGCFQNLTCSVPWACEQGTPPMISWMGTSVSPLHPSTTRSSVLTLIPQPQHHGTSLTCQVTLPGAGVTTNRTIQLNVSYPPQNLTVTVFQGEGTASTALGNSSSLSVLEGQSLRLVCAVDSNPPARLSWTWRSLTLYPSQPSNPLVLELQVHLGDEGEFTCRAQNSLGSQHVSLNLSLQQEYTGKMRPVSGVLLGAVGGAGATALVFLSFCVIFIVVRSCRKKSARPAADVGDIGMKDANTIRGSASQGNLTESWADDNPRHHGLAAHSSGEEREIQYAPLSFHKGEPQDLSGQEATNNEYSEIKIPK
Description: (§1) Initial characterization of Siglec-7 antibodies involved determining their ability to bind Siglec-7 expressed on human primary monocytes, human primary macrophages, human primary dendritic cells, human primary neutrophils, and human primary natural killer (NK) cells. Cells were harvested, plated at 10⁶/ml in a 96 well plate, and incubated in 100 ul PBS containing 2% FBS, 2 mM EDTA and 10 μg/ml Mab and Fc blocking reagent for 1 hour in ice. Cells were washed twice and incubated in 100 ul PBS containing 2% FBS, 2 mM EDTA and 5 ug/ml PE-conjugated secondary antibody for 30 minutes on ice. Cells were washed twice in cold PBS and analyze by flow cytometry on a BD FACS Canto. Data analysis and calculation of MFI values was performed with FlowJo (TreeStar) software version 10.0.7.
(§2) Percent positive binding and mean fluorescent intensity (MFI) values for cell types bound by Siglec-7 antibodies are listed in Table 4A. Binding is compared to an isotype control. The antibodies bind to human primary monocytes, human primary dendritic cells, and human primary macrophages. In Table 4A, “Buffer” refers to cells that were treated only with the PBS buffer described supra; “Secondary Ab” refers to cells that were treated only with the PE-conjugated secondary antibody; “mIgG1,” “mIgG2a,” and “mIgG2b” refer to isotype control antibodies; and “RDS7” refers to commerically available anti-Siglec-7 antibody Mab1138 (R&D Systems; Cat. No. MAB 1138).

[8] = target: T3, human Siglec-7 expressed on human cells …; test: cell-based or functional assay
[9] = target: T3, human Siglec-7 expressed on human cells …; test: cell-based or functional assay; remark: listed apart in the source
[10] = target: T3, human Siglec-7 expressed on human cells …; test: FACS, human primary macrophages, 10 ug/ml mAb
Description: as §1, §2

[11] = target: T3, human Siglec-7 expressed on human cells …; test: FACS, human primary dendritic cells, 10 ug/ml mAb
Description: as §1, §2

Sequence of human Siglec-7 expressed on human cells (primary monocytes, dendritic cells, macrophages, NK cells, microglia, U937 cells, human cells of humanized mice) (human) (Q9Y286 19-467): as above

Molecule | Kd [5] | Percent RBC Binding to Siglec-7 [6] | % Positive [7] | MFI [7] | Percent Siglec-7 Surface Expression, Macrophages [8] | Percent Siglec-7 Surface Expression, Microglia [8] | Percent Siglec-7 Surface Expression, NK cells [8] | Percent Siglec-7 Surface Expression, DCs [9] | Percent Siglec-7 Surface Expression, Monocytes [9] | Percent Siglec-7 Surface Expression, U937 cells [9] | % Positive [10] | MFI [10] | % Positive [11] | MFI [11] | also measured
mIgG2a isotype control antibody |  |  |  |  |  |  |  |  |  |  |  |  |  |  | % Positive [1]: 4.5%; MFI [1]: 134; % Positive [2]: 14%; MFI [2]: 141; % Positive [3]: 35.8%; MFI [3]: 648; Percent Siglec-7 Surface Expression, DCs [4]: 100%; Percent Siglec-7 Surface Expression, Macrophages [4]: 100%; Percent Siglec-7 Surface Expression, Microglia [4]: 84.2%; Percent Siglec-7 Surface Expression, Monocytes [4]: 99.4%; Percent Siglec-7 Surface Expression, NK cells [4]: 101%; Percent Siglec-7 Surface Expression, U937 cells [4]: 99.8%
anti-Siglec-7 antibody 1A12 (antibody, V domains shown, also called 1Al2) VH: QVQLQQSGSELRSPGSSVKLSCKDFDSEVFPITYMNWVRQKPGHGFEWIGDILPSIGRTMYGEKFEDKATLDADTVSNTAYLELNSLTSEDSAIYYCARSEGYLLAYWGQGTLVTVSA VL: DVZMTQTPLSLPVSLGDQASISCRSSQSLVHSTGNTYLHWYLQKPGQSPKLLIYKVSNRFSGVPDRFSGSGAGTDFTLKISRVEAEDLGVYFCSQNTHVPYTFGGGTKLEIK | 0.6 nM | 16.5% | 99.3% | 505 | 13.4% | 28.6% | 136% | 100% | 39.9% | 87.3% | 99.4% | 15800 | 99.7% | 6090 | 
anti-Siglec-7 antibody 4D7 (antibody, V domains shown, Variable domains assembled from FR and CDR entries) VH: QVQLQQSGAELVKPGASVKLSCKTSGYTFTNYWINWVKQRPGQGLEWIGNIYSGSSRTNYNEKFKSKATLTVDTSSSTAYMQLSSLTSDDSAVYYCAREGLRAMDYWGQGTSVTVSS VL: NZMTQFQKFMSTSVGDRVSLTCKASQKVGTNVAGFQQKPGHSPKAGIYSASTRHRGVQDRFTARGLGSDFILPITTZQLEDLAEYZCHQGNSVQYTFGGGTKLEIK | 2.9 nM | 96.5% | 90.5% | 262 | 24.1% | 44.3% | 87.6% | 73.3% | 33.9% | 84.7% | 99.4% | 4260 | 26.1% | 250 | 
anti-Siglec-7 antibody 7E11 (antibody, V domains shown, Variable domains assembled from FR and CDR entries) VH: QVQLKQSGPVLVAPSQSLSITCTVSGFSLSNYGVHWVRQFPGKGLEWLGVIWAGGITNYNSVLMSRLSISKDNSKSQVFLKMNSLQTDDTAMYYCAKQGGTSFSYWGQGTLVTVSA VL: DIQMTQSPASQSASLGESVTITCLASQTIGTWLAWYQQKPGKSPQLLIYAATSLADGVPSRFSGSGSGTKFSFKISSLQAEDFVSYYCQQLYSTPYTFGGGTKLEIK | 9.5 nM | 89.3% | 93.3% | 278 | 5.7% | 11.5% | 50.7% | 19.3% | 8.1% | 75.2% | 99.8% | 2380 | 98.4% | 845 | 
